Measured values published in article PMC8285061.

What was measured:
[1] = biological target: T1, His6-Pal1 (Pal1-deltaN) (Saccharomyces cerevisiae, UniProt Q05518 165-499); assay: EMSA
T1 sequence: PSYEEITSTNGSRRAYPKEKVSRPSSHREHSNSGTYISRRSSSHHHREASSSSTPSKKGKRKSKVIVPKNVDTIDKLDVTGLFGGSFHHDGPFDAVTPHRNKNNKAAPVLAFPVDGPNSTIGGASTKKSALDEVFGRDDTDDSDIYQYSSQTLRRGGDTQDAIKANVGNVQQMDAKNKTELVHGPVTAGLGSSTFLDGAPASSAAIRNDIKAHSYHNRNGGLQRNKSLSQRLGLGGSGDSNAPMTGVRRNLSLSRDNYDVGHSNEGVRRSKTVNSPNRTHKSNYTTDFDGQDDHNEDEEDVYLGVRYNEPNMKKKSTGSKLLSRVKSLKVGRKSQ

[2] = biological target: T2, His6-Pal2 (Pal2-deltaN65) (Saccharomyces cerevisiae, UniProt P38809 65-366); assay: EMSA
T2 sequence: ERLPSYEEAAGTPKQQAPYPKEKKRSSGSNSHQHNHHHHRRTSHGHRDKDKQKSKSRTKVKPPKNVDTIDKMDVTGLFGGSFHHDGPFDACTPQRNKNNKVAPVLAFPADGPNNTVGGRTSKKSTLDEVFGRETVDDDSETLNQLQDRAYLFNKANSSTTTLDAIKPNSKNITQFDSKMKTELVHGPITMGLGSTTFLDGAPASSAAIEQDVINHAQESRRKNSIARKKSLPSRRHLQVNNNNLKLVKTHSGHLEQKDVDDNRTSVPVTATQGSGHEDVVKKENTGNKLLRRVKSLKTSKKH

[3] = biological target: His6-Ypt1 (UniProt P01123 1-206); assay: EMSA
His6-Ypt1, sequence (P01123 whole entry): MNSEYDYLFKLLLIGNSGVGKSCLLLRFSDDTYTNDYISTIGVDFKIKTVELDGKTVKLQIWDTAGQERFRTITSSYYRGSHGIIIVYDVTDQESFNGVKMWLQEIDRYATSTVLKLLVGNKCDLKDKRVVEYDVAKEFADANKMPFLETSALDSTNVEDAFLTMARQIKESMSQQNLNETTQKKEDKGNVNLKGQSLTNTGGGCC

[4] = biological target: T2, His6-Pal2 (Pal2-deltaN65); assay: competition

Binder | binding result [1] | binding result [2] | binding result [3] | binding result [4]
Flc-3'-BE (HAC1 3'-UTR bipartite element) (structured_RNA) RNA: CGUGAGGUUGGCGCGCCCUCCUACAAUUAUUUGUGGCGACUGGGCAGCGACACUGAACA | binds | binds | no binding | 
unlabeled 3'-BE transcript (structured_RNA) RNA: GGGCGUGAGGUUGGCGCGCCCUCCUACAAUUAUUUGUGGCGACUGGGCAGCGACACUGAACA |  |  |  | binds
